Experimental data published in US20220340682A1 (Sanofi, published 2022).

T1: hCEACAM5, human CEACAM5 ECD (35-685) (human, UniProt P06731 35-685)
T1 construct: produced in HEK293; also called human CEACAM5 protein; human CEACAM5 extracellular domain
T1 sequence: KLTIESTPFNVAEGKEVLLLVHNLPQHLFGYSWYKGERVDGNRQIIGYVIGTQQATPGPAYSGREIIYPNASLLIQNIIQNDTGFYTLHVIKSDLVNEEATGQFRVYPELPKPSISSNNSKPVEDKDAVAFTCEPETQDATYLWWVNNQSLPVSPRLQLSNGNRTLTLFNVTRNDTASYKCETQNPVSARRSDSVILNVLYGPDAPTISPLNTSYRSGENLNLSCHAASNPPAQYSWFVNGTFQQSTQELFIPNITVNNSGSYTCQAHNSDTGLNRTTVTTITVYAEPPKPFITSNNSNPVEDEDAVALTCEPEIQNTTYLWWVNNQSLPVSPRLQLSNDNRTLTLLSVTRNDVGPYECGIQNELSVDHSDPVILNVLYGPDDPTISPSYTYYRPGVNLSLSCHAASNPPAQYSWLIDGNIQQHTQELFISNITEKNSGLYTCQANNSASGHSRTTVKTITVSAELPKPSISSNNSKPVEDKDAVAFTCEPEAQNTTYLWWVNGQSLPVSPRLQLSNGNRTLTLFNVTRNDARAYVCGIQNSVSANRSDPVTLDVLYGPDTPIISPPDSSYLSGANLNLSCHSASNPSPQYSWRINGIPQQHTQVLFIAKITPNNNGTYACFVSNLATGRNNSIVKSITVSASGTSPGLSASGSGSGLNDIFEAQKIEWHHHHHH

T2: human CEACAM5 expressed on the surface of tumor cells (human, UniProt P06731 35-685)
T2 construct: Endogenous CEACAM5 of human tumor cells; also called hCEACAM5 on MKN45 cells; CEACAM5 on CR-IGR-034P primary colon tumor cells
T2 sequence: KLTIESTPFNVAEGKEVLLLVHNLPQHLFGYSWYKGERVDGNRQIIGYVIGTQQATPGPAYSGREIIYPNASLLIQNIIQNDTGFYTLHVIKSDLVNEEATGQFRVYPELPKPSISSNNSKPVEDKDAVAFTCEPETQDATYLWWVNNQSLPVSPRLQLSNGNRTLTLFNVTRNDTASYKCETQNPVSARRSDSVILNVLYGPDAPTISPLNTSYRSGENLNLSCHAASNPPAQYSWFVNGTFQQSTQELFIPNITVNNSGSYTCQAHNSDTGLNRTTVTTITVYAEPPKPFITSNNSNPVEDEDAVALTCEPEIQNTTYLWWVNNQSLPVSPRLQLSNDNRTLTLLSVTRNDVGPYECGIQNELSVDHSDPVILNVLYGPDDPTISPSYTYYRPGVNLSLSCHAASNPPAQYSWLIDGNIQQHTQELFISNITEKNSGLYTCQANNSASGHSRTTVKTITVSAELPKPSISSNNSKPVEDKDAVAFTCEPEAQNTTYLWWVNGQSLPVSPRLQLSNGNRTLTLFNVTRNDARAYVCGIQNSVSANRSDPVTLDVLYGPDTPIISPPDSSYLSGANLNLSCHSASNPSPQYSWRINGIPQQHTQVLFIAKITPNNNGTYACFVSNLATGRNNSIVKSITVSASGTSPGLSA

T3: hCEACAM5 NA1B1, human CEACAM5 N-A1-B1 domain (35-320) (human, UniProt P06731 35-320)
T3 construct: Followed by 6 amino acid His-Tag; also called hCEACAM5 N-ter-A1-B1
T3 sequence: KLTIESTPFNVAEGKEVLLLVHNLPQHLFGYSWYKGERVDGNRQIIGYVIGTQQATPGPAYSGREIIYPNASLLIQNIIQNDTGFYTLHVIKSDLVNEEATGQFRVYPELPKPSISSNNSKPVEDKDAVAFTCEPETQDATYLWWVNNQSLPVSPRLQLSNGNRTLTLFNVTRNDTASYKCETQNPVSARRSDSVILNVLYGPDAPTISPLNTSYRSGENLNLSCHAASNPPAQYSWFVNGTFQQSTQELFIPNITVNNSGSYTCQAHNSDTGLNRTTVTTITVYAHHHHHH

T4: CEACAM5 A2B2, human CEACAM5 A2-B2 domain (321-498) (human, UniProt P06731 321-498)
T4 construct: Followed by 6 amino acid His-Tag; also called hCEACAM5-A2-B2
T4 sequence: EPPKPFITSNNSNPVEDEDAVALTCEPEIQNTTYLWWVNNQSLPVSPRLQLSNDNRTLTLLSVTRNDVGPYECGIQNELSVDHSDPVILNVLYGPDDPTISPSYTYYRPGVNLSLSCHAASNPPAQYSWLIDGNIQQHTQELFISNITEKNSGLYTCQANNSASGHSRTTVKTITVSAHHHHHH

T5: CEACAM5 A3B3, human CEACAM5 A3-B3 domain (499-685) (human, UniProt P06731 499-685)
T5 construct: Followed by 6 amino acid His-Tag; also called hCEACAM5 A3-B3; human A3B3 domain
T5 sequence: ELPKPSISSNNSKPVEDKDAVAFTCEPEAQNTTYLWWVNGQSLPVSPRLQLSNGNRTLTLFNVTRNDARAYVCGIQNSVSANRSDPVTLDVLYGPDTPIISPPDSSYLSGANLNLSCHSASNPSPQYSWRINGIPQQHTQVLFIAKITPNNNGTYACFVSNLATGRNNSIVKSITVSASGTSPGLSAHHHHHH


How the values were obtained:
[1] = molecular target: T1, hCEACAM5, human CEACAM5 ECD (35-685); experiment: ELISA, murine hybridoma mAb
[2] = molecular target: T2, human CEACAM5 expressed on the surface …; experiment: flow cytometry on MKN45 cells
Experimental: The apparent affinity of anti-CEACAM5 antibodies to hCEACAM5 expressed on the surface of human MKN45 (DSMZ, ACC 409) tumoral cells were determined by Guava® easyCyte™ 8HT Flow Cytometry System. MKN45 tumoral cells were coated at 40,000 cells/well on 96-well High Bind plate (MSD L15XB-3) and 100 μL/well of anti-CEACAM5 antibodies were added in 2-fold serial dilutions starting at 20 μg/ml up to 12 dilutions in assay diluant for 45 min at 4° C. and washed three times with PBS 1% BSA. 100 μL/well of goat anti-mouse IgG conjugated with Alexa647 (Invitrogen; # A2135) was added for 45 min at 4° C. and washed three times with PBS 1% BSA. The antibody binding was evaluated after centrifugation and resuspension of cells by adding 200 μl/well PBS 1% BSA and read using Guava® easyCyte™ 8HT Flow Cytometry System. Apparent KD and EC₅₀ values were estimated using BIOST@T-BINDING and BIOST@T-SPEED softwares, respectively.

[3] = molecular target: T3, hCEACAM5 NA1B1, human CEACAM5 N-A1-B1 …; experiment: ELISA on CEACAM5 domains
[4] = molecular target: T4, CEACAM5 A2B2, human CEACAM5 A2-B2 …; experiment: ELISA on CEACAM5 domains
[5] = molecular target: T5, CEACAM5 A3B3, human CEACAM5 A3-B3 …; experiment: ELISA on CEACAM5 domains

Binder	EC50 [1]	EC50 [2]	percentage of binding compared to full binding with human CEACAM5 [3]	percentage of binding compared to full binding with human CEACAM5 [4]	percentage of binding compared to full binding with human CEACAM5 [5]
antibody MAb4 (antibody, IgG1, V domains shown, Murine monoclonal from hybridoma, IgG1, kappa) VH: EVQLVESGGGLVKPGGSLKLSCAASGFTFSSYDMSWVRQTPEKRLEWVAFISSYGGRTYYADTVKGRFTISRDNAKNTLYLQMSSLKSEDTAMFYCAAHYFGTSGPFAYWGQGTLVTVSA VL: DIQMTQSPASLSASVGETVTITCRASENIYSYFAWYQQKQGKSPQLLVYNAKILAEGVPSRFSGSGSGTQFSLKINSLQPEDFGTYYCQHHYGIPFTFGSGTKLELK	0.08 nM	4.9 nM			
antibody MAb5 (antibody, IgG1, V domains shown, Murine monoclonal from hybridoma, IgG1, kappa) VH: ELQLVESGGVLVKPGGSLKLSCAASGFAFSSYDMSWVRQTPEKRLEWVTYINSGGGITYYPDTVKGRFTISRDNARNTLYLQMSSLKSEDTAIYYCTAHYFGSSGPFAYWGQGTLVTVSA VL: DIQMTQSPASLSASVGETVTITCRASENIYSYLAWYQQKQGKSPQLLVYNAKTLTEGVPSRFSGSGSGTQFSLKINSLQPEDFGSYYCQHHYGTPFTFGSGTKLEIK	0.4 nM	0.73 nM			
huMAb2-3 (antibody, human IgG1, kappa, V domains shown, Humanized MAb2, human IgG1 / Ckappa; also called MAb2_VL1cVH1a-IgG1) VH: EVQLQESGPGLVKPGGSLSLSCAASGFVFSSYDMSWVRQTPERGLEWVAYISSGGGITYAPSTVKGRFTVSRDNAKNTLYLQMNSLTSEDTAVYYCAAHYFGSSGPFAYWGQGTLVTVSS VL: DIQMTQSPASLSASVGDRVTITCRASENIFSYLAWYQQKPGKSPKLLVYNTRTLAEGVPSRFSGSGSGTDFSLTISSLQPEDFATYYCQHHYGTPFTFGSGTKLEIKR			0.4%	0.4%	100%
huMAb2-1 (antibody, V domains shown, Humanized MAb2 (VL1 + VH1) fused to human IgG1 and human Ckappa constant domains; also called MAb2_VL1VH1-IgG1; MAb2VL1VH1-IgG1) VH: EVQLQESGPGLVKPGGSLSLSCAASGFVFSSYDMSWVRQTPERRLEWVAYISSGGGITYFPSTVKGRFTVSRDNAKNTLYLQMNSLTSEDTAIYYCAAHYFGSSGPFAYWGQGTLVTVSA VL: DIQMTQSPASLSASVGDTVTITCRASENIFSYLAWYQQKPGKSPKLLVYNTKTLAEGVPSRFSGSGSGTQFSLTISSLQPEDFGSYYCQHHYGTPFTFGSGTKLEIK			0.4%	0.3%	100%
huMAb2-4 (antibody, human IgG1, kappa, V domains shown, Humanized MAb2, human IgG1 / Ckappa; also called MAb2_VL1d VH1-IgG1; MAb2_VL1dVH1-IgG1) VH: EVQLQESGPGLVKPGGSLSLSCAASGFVFSSYDMSWVRQTPERRLEWVAYISSGGGITYFPSTVKGRFTVSRDNAKNTLYLQMNSLTSEDTAIYYCAAHYFGSSGPFAYWGQGTLVTVSA VL: DIQMTQSPASLSASVGDTVTITCRASENIFSYLAWYQQKPGKSPKLLVYNTRTLAEGVPSRFSGSGSGTQFSLTISSLQPEDFGSYYCQHHYGTPFTFGSGTKLEIKR			0.3%	0.3%	100%
chMAb2 (antibody, human IgG1, kappa, V domains shown, Chimeric, human IgG1, Ck isotype; also called MAb2-IgG1; chimeric MAb2) VH: EVQLQESGGVLVKPGGSLKLSCAASGFVFSSYDMSWVRQTPEKRLEWVAYISSGGGITYFPDTVQGRFTVSRDNAKNTLYLQMNSLKSEDTAIYYCAAHYFGSSGPFAYWGQGTLVTVSA VL: DIQMTQSPASLSASVGETVTITCRASENIFSYLAWYQQKQGKSPQLLVYNTKTLAEGVPSRFSGSGSGTQFSLKINSLQPEDFGSYYCQHHYGTPFTFGSGTKLEIKR			0.5%	0.3%	100%
huMAb2-2 (antibody, V domains shown, Humanized MAb2 (VL1a + VH1a) fused to human IgG1 and human Ckappa constant domains; also called MAb2_VL1aVH1a-IgG1; MA2_VL1aVH1a-IgG1) VH: EVQLQESGPGLVKPGGSLSLSCAASGFVFSSYDMSWVRQTPERGLEWVAYISSGGGITYAPSTVKGRFTVSRDNAKNTLYLQMNSLTSEDTAVYYCAAHYFGSSGPFAYWGQGTLVTVSS VL: DIQMTQSPASLSASVGDRVTITCRASENIFSYLAWYQQKPGKSPKLLVYNTKTLAEGVPSRFSGSGSGTDFSLTISSLQPEDFATYYCQHHYGTPFTFGSGTKLEIK			0.4%	0.3%	100%
antibody MAb1 (antibody, IgG1, V domains shown) VH: EVMLVESGGGLVKPGGSLKLSCAASGFTFSSYAMSWVRQTPEKRLEWVATISSGGSYIYYLDSVKGRFTISRDNAKNTLYLQMSSLRSEDTAMYYCARPAYYGNPAMDYWGQGTSVTVSS VL: DILMTQSQKFMSTSVGDRVSVTCKASQNVGTNVAWYQQKPGQSPKPLIYSASYRYSGVPDRFTGSGSGTDFTLTISNVQSEDLAEYFCQQYNSYPLYTFGGGTKLEIK		16 nM			
antibody MAb3 (antibody, IgG1, V domains shown, Murine monoclonal from hybridoma, IgG1, kappa) VH: EVKLVESGGGLVKPGGSLTLPCAASGFTFSRYAMSWVRQTPEKRLEWVASISSGGDTYYPDSVKGRFTVSRDNARNILFLQMSSLRSEDTGMYYCARVNYYDSSFLDWWGQGTTLTVSS VL: DIVMTQSQRFMSTLEGDRVSVTCKASQNVGTNVAWYQQKPGQSPKALIYSASYRYSGVPDRFTGSGSGTDFTLTISNVQSEDLAEYFCQQYNNYPLYTFGGGTKLEIK	0.36 nM	6.2 nM			
